Data on three substances can be found in IntAct's records for PubMed 17451412.

Test [1] addresses wasl_rat Wasl (UniProt O08816).
Test [2] deals with tir_eco57 tir (UniProt Q7DB77).
tir_eco57 tir, sequence (Q7DB77 whole entry): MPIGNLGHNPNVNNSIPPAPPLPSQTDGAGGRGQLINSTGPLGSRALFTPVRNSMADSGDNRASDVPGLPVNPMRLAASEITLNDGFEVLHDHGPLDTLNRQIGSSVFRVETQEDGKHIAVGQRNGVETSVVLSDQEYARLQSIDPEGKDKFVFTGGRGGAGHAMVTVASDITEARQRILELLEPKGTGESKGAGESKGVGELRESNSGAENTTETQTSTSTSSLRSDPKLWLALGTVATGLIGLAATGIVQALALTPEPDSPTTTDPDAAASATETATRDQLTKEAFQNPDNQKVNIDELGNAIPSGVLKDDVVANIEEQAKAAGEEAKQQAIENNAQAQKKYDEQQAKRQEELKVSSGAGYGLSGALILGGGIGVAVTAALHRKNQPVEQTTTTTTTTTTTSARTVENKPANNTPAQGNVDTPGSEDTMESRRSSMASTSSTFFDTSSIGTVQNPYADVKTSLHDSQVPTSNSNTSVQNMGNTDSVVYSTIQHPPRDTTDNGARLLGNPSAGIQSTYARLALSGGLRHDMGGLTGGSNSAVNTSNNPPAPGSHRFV

wasl_rat Wasl, sequence (O08816 whole entry): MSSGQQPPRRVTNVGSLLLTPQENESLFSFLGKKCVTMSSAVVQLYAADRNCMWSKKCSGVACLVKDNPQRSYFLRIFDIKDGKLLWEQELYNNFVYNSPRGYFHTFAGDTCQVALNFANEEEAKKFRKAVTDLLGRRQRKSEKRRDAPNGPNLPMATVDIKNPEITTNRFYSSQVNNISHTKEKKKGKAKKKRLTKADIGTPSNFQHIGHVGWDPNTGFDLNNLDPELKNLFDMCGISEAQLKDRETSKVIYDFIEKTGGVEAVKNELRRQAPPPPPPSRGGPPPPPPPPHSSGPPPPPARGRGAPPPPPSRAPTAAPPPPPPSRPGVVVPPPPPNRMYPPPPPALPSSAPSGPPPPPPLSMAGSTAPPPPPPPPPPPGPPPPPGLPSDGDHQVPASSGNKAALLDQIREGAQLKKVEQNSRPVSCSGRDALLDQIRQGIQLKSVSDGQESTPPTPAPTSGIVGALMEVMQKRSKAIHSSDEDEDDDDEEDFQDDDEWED
Src substrate cortactin (Mus musculus), Q60598 Y421D;Y466D, sequence (Q60598 whole entry Y421D/Y466D): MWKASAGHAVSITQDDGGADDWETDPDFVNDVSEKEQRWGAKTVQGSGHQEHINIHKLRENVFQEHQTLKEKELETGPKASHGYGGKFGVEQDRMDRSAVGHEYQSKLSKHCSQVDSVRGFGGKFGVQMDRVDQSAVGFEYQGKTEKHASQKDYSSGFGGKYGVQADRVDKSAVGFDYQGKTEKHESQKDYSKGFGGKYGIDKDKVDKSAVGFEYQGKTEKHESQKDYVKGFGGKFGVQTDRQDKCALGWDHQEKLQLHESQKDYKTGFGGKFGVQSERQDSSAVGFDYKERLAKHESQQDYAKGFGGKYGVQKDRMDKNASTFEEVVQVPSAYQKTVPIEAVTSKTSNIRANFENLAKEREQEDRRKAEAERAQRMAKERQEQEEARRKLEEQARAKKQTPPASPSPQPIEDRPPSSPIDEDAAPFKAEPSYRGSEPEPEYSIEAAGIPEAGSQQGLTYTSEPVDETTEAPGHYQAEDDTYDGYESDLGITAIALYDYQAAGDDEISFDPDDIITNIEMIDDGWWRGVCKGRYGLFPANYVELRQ
Src substrate cortactin (Mus musculus), Q60598 S405D;S418D, sequence (Q60598 whole entry S405D/S418D): as the sequence (Q60598 whole entry Y421D/Y466D) above, with S405D, S418D, D421Y, D466Y counted along it
Src substrate cortactin (Mus musculus), Q60598 W525K, sequence (Q60598 whole entry W525K): as the sequence (Q60598 whole entry Y421D/Y466D) above, with D421Y, D466Y, W525K counted along it

Regarding “Src substrate cortactin (Mus musculus), Q60598 S405D;S418D”, the “effect of a mutation on the interaction” value in test [1] is “disrupting interaction”; in test [2] it was “with no effect”.
With “Src substrate cortactin (Mus musculus), Q60598 W525K”, the “effect of a mutation on the interaction” value in test [1] was “with no effect”.
Regarding “Src substrate cortactin (Mus musculus), Q60598 Y421D;Y466D”, the “effect of a mutation on the interaction” value in test [1] and in test [2] was “increasing interaction” each time.
